Source: patent US6183121

Experiments:
[1] = biological target: HCV NS3 helicase domain (wild type) (Hepatitis C virus) (UniProt P26664); conditions: requires ATP and Mn2+ or Mg2+; 25 mM MOPS pH 6.5, 1 mM ATP, 0.5 mM MnCl2, 37 C
[2] = biological target: HCV NS3 full-length (wild type) (Hepatitis C virus) (UniProt P26664)
[3] = biological target: HCV NS3 helicase domain (wild type) (Hepatitis C virus) (UniProt P26664); experiment: filter; conditions: 25 mM MOPS pH 7.0, 2 mM DTT, 30 C; 0.445 RNA per helicase molecule; koff 1.52e-2 min-1
[4] = biological target: HCV NS3 full-length (wild type) (Hepatitis C virus) (UniProt P26664); experiment: filter; conditions: reference
[5] = biological target: HCV NS3 helicase domain (wild type) (Hepatitis C virus) (UniProt P26664); conditions: poly(U)-stimulated ATPase; 50 mM MOPS pH 7.0, 0.5 mM MgCl2, 37 C

**Q.** For “3'-tailed 98-nt RNA / 34-nt DNA hybrid (pSP65 BsrBI transcript; pSP64 release strand)”, which activity (% of WT unwinding) [1] is on record?
**A.** 100

**Q.** What about the activity (% of WT unwinding) ([2]; reference) of the same substance?
**A.** 100

**Q.** What does the source list for “34-nt ssRNA (SP6 transcript of BamHI-digested pSP64)”?
**A.** Kd [3]: 5.18 nM; binding signal [4]: 100 % of WT

**Q.** With poly(U) as the substance, how does the activity (% of basal WT ATPase) ([2]; poly(U)-stimulated ATPase) read?
**A.** 581

**Q.** What about the activity (% of basal WT ATPase) [5] of the same substance?
**A.** 823
